This note sets out measurements from patent US20240272145A1.

For assay [1], the target named is citrullinated histone H2A and H4 present in pre-NETs (A23187-stimulated human neutrophils) (human) (UniProt P0C0S8). As to the kind of experiment: cell-based or functional assay.
Assay [2] has the same target. As to the kind of experiment: flow cytometry on fixed and permeabilized leukocytes of A23187-stimulated whole blood; detection with goat-anti-human IgG-Alexa Fluor 488. In general terms: Flow cytometry measures light scatter and fluorescence of single cells or particles in a stream.
For assay [3] the target is unchanged. As to the kind of experiment: flow cytometry on fixed and permeabilized leukocytes of A23187-stimulated whole blood; detection with goat-anti-human IgG-Alexa Fluor 488; negative control, same value as without antibody.

On to CIT-013 (antibody), for which, in assay [1], the NET-inhibitory effect compared to No Ab at 210 min (live imaging fluorescence microscopy, A23187-stimulated neutrophils) came to 66% and the NETs after 210 min (percentage of neutrophils at t=0) stood at 8%. The same substance gave a % pre-NETs (FITC+ of CD66b+ leukocytes, indicating antibody binding) in assay [2] of 15%.

isotype control antibody returned a % pre-NETs (FITC+ of CD66b+ leukocytes, indicating antibody binding) in assay [3] of 5%.
